Experimental data reported in the supplement of paper PMC11316812.
± gives the standard deviation of the averaged measurements.

What was measured:
[1] = tested on: hTERT-HMEC; test: percentage of EdU-negative (G0-arrested) nuclei per well, 72 h; higher = more G0 arrest; settings: reference: sequence is the full UniProt precursor, the tested protein was the secreted form or ectodomain
[2] = tested on: MCF7; test: as above; settings: reference: sequence is the full UniProt precursor, the tested protein was the secreted form or ectodomain
[3] = protein concentration 0.01475 µM
[4] = protein concentration 0.1475 µM
[5] = protein concentration 0.03125 µM
[6] = protein concentration 0.3125 µM
[7] = protein concentration 0.0328571 µM
[8] = protein concentration 0.328571 µM
[9] = protein concentration 0.0211825 µM
[10] = protein concentration 0.211825 µM
[11] = protein concentration 0.0225 µM
[12] = protein concentration 0.01775 µM
[13] = protein concentration 0.1775 µM
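Note: secreted proteins added to cultured cells, EdU pulse at the end, nuclei found by Hoechst imaging, EdU status from nuclear versus surrounding ring intensity ratio, PBS as neutral control.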

“MRLHLLLLLALCGAGTTAAELSYSLRGNWSICNGNGSLELPGAVPGCVHSALFQQGLIQDSYYRFNDLNYRWVSLDNWTYSKEFKIPFEISKWQKVNLILEGVDTVSKILFNEVTIGETDNMFNRYSFDITNVVRDVNSIELRFQSAVLYAAQQSKAHTRYQVPPDCPPLVQKGECHVNFVRKEQCSFSWDWGPSFPTQGIWKDVRIEAYNICHLNYFTFSPIYDKSAQEWNLEIESTFDVVSSKPVGGQVIVAIPKLQTQQTYSIELQPGKRIVELFVNISKNITVETWWPHGHGNQTGYNMTVLFELDGGLNIEKSAKVYFRTVELIEEPIKGSPGLSFYFKINGFPIFLKGSNWIPADSFQDRVTSELLRLLLQSVVDANMNTLRVWGGGIYEQDEFYELCDELGIMVWQDFMFACALYPTDQGFLDSVTAEVAYQIKRLKSHPSIIIWSGNNENEEALMMNWYHISFTDRPIYIKDYVTLYVKNIRELVLAGDKSRPFITSSPTNGAETVAEAWVSQNPNSNYFGDVHFYDYISDCWNWKVFPKARFASEYGYQSWPSFSTLEKVSSTEDWSFNSKFSLHRQHHEGGNKQMLYQAGLHFKLPQSTDPLRTFKDTIYLTQVMQAQCVKTETEFYRRSRSEIVDQQGHTMGALYWQLNDIWQAPSWASLEYGGKWKMLHYFAQNFFAPLLPVGFENENTFYIYGVSDLHSDYSMTLSVRVHTWSSLEPVCSRVTERFVMKGGEAVCLYEEPVSELLRRCGNCTRESCVVSFYLSADHELLSPTNYHFLSSPKEAVGLCKAQITAIISQQGDIFVFDLETSAVAPFVWLDVGSIPGRFSDNGFLMTEKTRTILFYPWEPTSKNELEQSFHVTSLTDIY” was tested, and the “percentage of EdU-negative” value [1, 3] was 5.29 ± 0.2%, the “percentage of EdU-negative” value [1, 4] was 5.9 ± 0.22% and the “percentage of EdU-negative” value [2, 3] was 25.3 ± 0.54%. The “percentage of EdU-negative” value [2, 4] was 28.1 ± 0.47%.
With “MGLSTVPDLLLPLVLLELLVGIYPSGVIGLVPHLGDREKRDSVCPQGKYIHPQNNSICCTKCHKGTYLYNDCPGPGQDTDCRECESGSFTASENHLRHCLSCSKCRKEMGQVEISSCTVDRDTVCGCRKNQYRHYWSENLFQCFNCSLCLNGTVHLSCQEKQNTVCTCHAGFFLRENECVSCSNCKKSLECTKLCLPQIENVKGTEDSGTTVLLPLVIFFGLCLLSLLFIGLMYRYQRWKSKLYSIVCGKSTPEKEGELEGTTTKPLAPNPSFSPTPGFTPTLGFSPVPSSTFTSSSTYTPGDCPNFAAPRREVAPPYQGADPILATALASDPIPNPLQKWEDSAHKPQSLDTDDPATLYAVVENVPPLRWKEFVRRLGLSDHEIDRLELQNGRCLREAQYSMLATWRRRTPRREATLELLGRVLRDMDLLGCLEDIEEALCGPAALPPAPSLLR” the “percentage of EdU-negative” value [1, 5] was 4.76 ± 0.43%, the “percentage of EdU-negative” value [1, 6] was 5.34 ± 0.28% and the “percentage of EdU-negative” value [2, 5] was 24.9 ± 3.4%. For the same sequence, the “percentage of EdU-negative” value [2, 6] was 25.5 ± 0.84%.
“MSMLVVFLLLWGVTWGPVTEAAIFYETQPSLWAESESLLKPLANVTLTCQAHLETPDFQLFKNGVAQEPVHLDSPAIKHQFLLTGDTQGRYRCRSGLSTGWTQLSKLLELTGPKSLPAPWLSMAPVSWITPGLKTTAVCRGVLRGVTFLLRREGDHEFLEVPEAQEDVEATFPVHQPGNYSCSYRTDGEGALSEPSATVTIEELAAPPPPVLMHHGESSQVLHPGNKVTLTCVAPLSGVDFQLRRGEKELLVPRSSTSPDRIFFHLNAVALGDGGHYTCRYRLHDNQNGWSGDSAPVELILSDETLPAPEFSPEPESGRALRLRCLAPLEGARFALVREDRGGRRVHRFQSPAGTEALFELHNISVADSANYSCVYVDLKPPFGGSAPSERLELHVDGPPPRPQLRATWSGAVLAGRDAVLRCEGPIPDVTFELLREGETKAVKTVRTPGAAANLELIFVGPQHAGNYRCRYRSWVPHTFESELSDPVELLVAES” was tested, and the “percentage of EdU-negative” value [1, 7] was 5.27 ± 0.37%, the “percentage of EdU-negative” value [1, 8] was 10.2 ± 0.85% and the “percentage of EdU-negative” value [2, 7] was 24.5 ± 4.7%. The “percentage of EdU-negative” value [2, 8] was 27.1 ± 2.2%.
In the case of “MARVLGAPVALGLWSLCWSLAIATPLPPTSAHGNVAEGETKPDPDVTERCSDGWSFDATTLDDNGTMLFFKGEFVWKSHKWDRELISERWKNFPSPVDAAFRQGHNSVFLIKGDKVWVYPPEKKEKGYPKLLQDEFPGIPSPLDAAVECHRGECQAEGVLFFQGDREWFWDLATGTMKERSWPAVGNCSSALRWLGRYYCFQGNQFLRFDPVRGEVPPRYPRDVRDYFMPCPGRGHGHRNGTGHGNSTHHGPEYMRCSPHLVLSALTSDNHGATYAFSGTHYWRLDTSRDGWHSWPIAHQWPQGPSAVDAAFSWEEKLYLVQGTQVYVFLTKGGYTLVSGYPKRLEKEVGTPHGIILDSVDAAFICPGSSRLHIMAGRRLWWLDLKSGAQATWTELPWPHEKVDGALCMEKSLGPNSCSANGPGLYLIHGPNLYCYSDVEKLNAAKALPQPQNVTSLLGCTH”, the “percentage of EdU-negative” value [1, 9] is reported as 5.25 ± 0.85%, the “percentage of EdU-negative” value [1, 10] is reported as 6.11 ± 0.9% and the “percentage of EdU-negative” value [2, 9] is reported as 26.5 ± 0.3%. The “percentage of EdU-negative” value [2, 10] was 26.7 ± 0.95%.
With “MPGAAEALPTVTVTLVAGAVPPASGALTAHCIGGFWREVGVASDQSLVLTAPKRVEGLFLTLSGSNLTVKVAYNSSGSCEIEKIVGSEIDSTGKFAFPGHREIHVLDTDYEGYAILRVSLMWRGRNFRVLKYFTRSLEDKDRLGFWKFRELTADTGLYLAARPGRCAELLKEELI [Q6JVE9]” the “percentage of EdU-negative” value [1, 11] was 5.03 ± 0.21%, the “percentage of EdU-negative” value ([1]; protein concentration 0.225 µM) was 9.51 ± 1.1% and the “percentage of EdU-negative” value [2, 11] was 26.5 ± 1.8%. The “percentage of EdU-negative” value ([2]; protein concentration 0.225 µM) was 31 ± 2.1%.
With “MIRTLLLSTLVAGALSCGDPTYPPYVTRVVGGEEARPNSWPWQVSLQYSSNGKWYHTCGGSLIANSWVLTAAHCISSSRTYRVGLGRHNLYVAESGSLAVSVSKIVVHKDWNSNQISKGNDIALLKLANPVSLTDKIQLACLPPAGTILPNNYPCYVTGWGRLQTNGAVPDVLQQGRLLVVDYATCSSSAWWGSSVKTSMICAGGDGVISSCNGDSGGPLNCQASDGRWQVHGIVSFGSRLGCNYYHKPSVFTRVSNYIDWINSVIANN” the “percentage of EdU-negative” value [1, 12] was 6.83 ± 1.7%, the “percentage of EdU-negative” value [1, 13] was 24.7 ± 3.9% and the “percentage of EdU-negative” value [2, 12] was 23.79 ± 0.23%. For the same sequence, the “percentage of EdU-negative” value [2, 13] was 29.6 ± 2.2%.
With “MKALGAVLLALLLFGRPGRGQTQQEEEEEDEDHGPDDYDEEDEDEVEEEETNRLPGGRSRVLLRCYTCKSLPRDERCNLTQNCSHGQTCTTLIAHGNTESGLLTTHSTWCTDSCQPITKTVEGTQVTMTCCQSSLCNVPPWQSSRVQDPTGKGAGGPRGSSETVGAALLLNLLAGLGAMGARRP [Q8IV16]” the “percentage of EdU-negative” value [1, 11] was 4.99 ± 0.54%, the “percentage of EdU-negative” value ([1]; protein concentration 0.225 µM) was 4.82 ± 0.83% and the “percentage of EdU-negative” value [2, 11] was 28.3 ± 1.3%. For the same sequence, the “percentage of EdU-negative” value ([2]; protein concentration 0.225 µM) was 24.9 ± 0.96%.
